Reference: patent US20020115184

Key:
[1] = biological target: T1, immature TasA protein (pro-TasA), 34 kDa
T1 chain: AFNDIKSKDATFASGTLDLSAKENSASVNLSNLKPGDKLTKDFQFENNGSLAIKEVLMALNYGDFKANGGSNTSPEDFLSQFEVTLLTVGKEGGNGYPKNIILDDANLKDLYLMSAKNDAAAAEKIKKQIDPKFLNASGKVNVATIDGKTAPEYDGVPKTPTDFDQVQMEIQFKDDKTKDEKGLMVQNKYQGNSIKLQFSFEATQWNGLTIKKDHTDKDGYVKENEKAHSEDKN

B. subtilis YqxM protein = biological target: T2, B. subtilis YqxM protein
T2 chain: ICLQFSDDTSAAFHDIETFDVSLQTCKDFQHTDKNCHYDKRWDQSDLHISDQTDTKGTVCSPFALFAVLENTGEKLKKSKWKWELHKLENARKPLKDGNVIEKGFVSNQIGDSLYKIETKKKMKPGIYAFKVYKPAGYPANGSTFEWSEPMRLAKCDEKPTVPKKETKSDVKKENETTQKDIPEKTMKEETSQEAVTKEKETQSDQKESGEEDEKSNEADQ

B1: B. subtilis SipW protein (signal peptidase) (protein)
chain: MKLISNILYVIIFTLIIVLTLVVISTRSSGGEPAVFGYTLKSVLSGSMEPEFNTGSLILVKEITDVKELQKGDVITFMQDANTAVTHRIVDITKQGDHLLFKTKGDNNAAADSAPVSDENVRAQYTGFQLPYAGYMLHFASQPIGTAVLLIVPGVMLLVYAFVTISSAIREIERKTKALETDTKDSTMST
Western blot for mature TasA in a strain where the neo promoter drives sipW and TasA and YqxM is disrupted [1]: A band corresponding to mature TasA was detected in extracts of spores and in both the culture supernatants and lysates of sporangia and vegetative cells. No protein of larger molecular weight that could correspond to immature TasA was detected.
Western blot of TasA size in sipW deletion strains (34 kDa immature against 31 kDa mature) [1]: a 34 kDa band was detected in both sporangial lysates and vegetative cells
Western blot of YqxM in concentrated E. coli culture supernatants (B. subtilis YqxM protein): when both YqxM and SipW were produced, YqxM was abundant in the culture supernatant and migrated as a smaller 31 kD species
YqxM associated with the spore, with sipW deleted or under pSpac control (B. subtilis YqxM protein): deletion of sipW resulted in no measurable amount of YqxM associated with the spore
